Data on 13 sequences can be found in the Immune Epitope Database (IEDB).

Among the targets are HLA-B*39:01; HLA-B*39:06; HLA-B*38:01.
Test in all cases: IEDB peptide-MHC binding, purified MHC/competitive/radioactivity; filed as Kd, often an IC50 or EC50 that approximates it; ≥ and ≤ were set here for values at or beyond the usual limits of such assays
Holding throughout (conditions): source organism: Homo sapiens

On to MRLLPLLA, for which the Kd (commonly a measure of binding affinity in units of concentration) is 0.062 µM with HLA-B*39:01, 0.041 µM with HLA-B*39:06 and not below 44.5 µM with HLA-B*38:01.
The corresponding values for WMRLLPLLA are 0.865 µM, 0.155 µM and not below 50 µM.
The corresponding values for TNLFLFLFAV are 3.95 µM, 0.354 µM and 6.69 µM.
The corresponding values for SHLVEALYL are 5.25 µM, not below 35.6 µM and 0.01 µM.
As for THFPHQVIL, the Kd with HLA-B*39:01 was determined as 0.073 µM; in the assay with HLA-B*39:06, 2.6 µM; in the assay with HLA-B*38:01, 0.142 µM.
On to FLFLFAVG, for which the values for the Kd with HLA-B*39:01, with HLA-B*39:06 and with HLA-B*38:01 were 17.9 µM, 0.405 µM and not below 50 µM, respectively.
The corresponding values for NRVMLPKAA are 0.035 µM, 0.014 µM and not below 50 µM.
On to SHVAVENAL, for which the Kd with HLA-B*39:01 came out at 0.011 µM; in the assay with HLA-B*39:06 it was 0.696 µM; in the assay with HLA-B*38:01, 0.321 µM.
The corresponding values for YHFLQIPT are 0.66 µM, 0.151 µM and 9.75 µM.
The matching figures for FRLLCALTSL: 0.29 µM, 0.0074 µM and 2.76 µM.
Take SASIPLTVVA: the Kd in the assay with HLA-B*39:01 was not below 30.9 µM; with HLA-B*39:06, 0.31 µM; in the assay with HLA-B*38:01, not below 50 µM.
Consider NRVMLPKA, for which the equilibrium dissociation constant (Kd) with HLA-B*39:01 is 0.085 µM; in the assay with HLA-B*39:06, 0.041 µM.
Regarding NHSSPCLEQF, the Kd with HLA-B*39:01 was not below 25.7 µM; with HLA-B*39:06 it was not below 50 µM.
